This passage reports Kd results from PMC8139713.

The target of this assay is ACE2-Fc (soluble human ACE2 fused to human IgG Fc) (human) (UniProt Q9BYF1). As to the kind of experiment: BLI.
Sequence of ACE2-Fc (soluble human ACE2 fused to human IgG Fc) (human) (Q9BYF1 18-738): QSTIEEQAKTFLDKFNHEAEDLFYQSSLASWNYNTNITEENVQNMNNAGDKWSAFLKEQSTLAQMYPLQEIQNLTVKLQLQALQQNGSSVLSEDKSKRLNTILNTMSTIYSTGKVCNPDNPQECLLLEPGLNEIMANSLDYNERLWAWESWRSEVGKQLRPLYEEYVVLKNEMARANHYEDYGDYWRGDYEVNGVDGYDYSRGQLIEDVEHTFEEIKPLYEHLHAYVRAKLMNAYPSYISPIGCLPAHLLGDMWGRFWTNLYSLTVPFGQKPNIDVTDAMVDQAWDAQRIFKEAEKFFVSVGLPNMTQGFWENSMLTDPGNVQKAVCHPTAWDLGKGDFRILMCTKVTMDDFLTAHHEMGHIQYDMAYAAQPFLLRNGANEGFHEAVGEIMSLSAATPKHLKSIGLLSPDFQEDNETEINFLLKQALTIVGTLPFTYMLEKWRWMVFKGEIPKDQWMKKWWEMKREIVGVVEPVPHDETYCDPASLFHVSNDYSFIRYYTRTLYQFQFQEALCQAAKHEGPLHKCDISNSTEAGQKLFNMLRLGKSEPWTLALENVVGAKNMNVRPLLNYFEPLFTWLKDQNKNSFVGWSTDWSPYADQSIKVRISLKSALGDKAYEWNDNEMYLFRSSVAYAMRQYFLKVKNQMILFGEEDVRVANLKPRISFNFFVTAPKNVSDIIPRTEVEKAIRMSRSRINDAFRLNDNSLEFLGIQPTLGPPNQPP

“wild-type SARS-CoV-1 S-Trimer (from UniProt P59594 14-1193) (domain or fragment)” had an equilibrium dissociation constant (Kd) of 1.2 nM.

What is called Kd is the concentration at which binding is half-saturated. Read a high Kd as lower affinity.
